Target: photoconvertible fluorescent protein DendFP (Dendronephthya sp)
Experiment: crystal structure; native DendFP crystals, hanging drop at 22 °C, 100 mM Tris-HCl pH 7.5, 0.2 M MgCl2, 20% PEG4000; eight molecules (two tetramers) in the asymmetric unit; interfaces analysed with PISA

stoichiometry N: 4
Substance: photoconvertible fluorescent protein DendFP (natural protein)

Reference: PMC9104182
